# Assay results taken from paper PMC6218473, “Recognition of host Clr-b by the inhibitory NKR-P1B receptor provides a basis for missing-self recognition” (Nature Communications, 2018).
# T1: NKR-P1B (B6 allele) C-type lectin-like domain with C-terminal BirA tag and His tag, biotinylated monomer (mouse, UniProt Q99JB4 89-215, biotin on the BirA tag)
# T1 chain: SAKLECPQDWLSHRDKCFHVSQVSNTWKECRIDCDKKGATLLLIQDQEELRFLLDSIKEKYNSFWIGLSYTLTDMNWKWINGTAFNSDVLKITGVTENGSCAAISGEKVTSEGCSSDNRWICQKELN
# B1: NKR-P1B (B6 allele) C-type lectin-like domain, His-tagged (domain or fragment, mouse)
# chain: T1 chain
# modifications: N-acetylglucosamine on Asn169 (seen in the structure)
# notes: NKR-P1B, B6 (C57BL/6) allele of Klrb1b, mouse, C-type lectin-like domain; Construct for structural and AUC experiments; also called ectodomain of NKR-P1B^B6
# B2: m12, mouse cytomegalovirus-encoded decoy ligand (ligand)
# chain: TNVLAAPKNTSCVKKFTVSERRPPPEPGKCMSLLGSTLVNKQAANKQVDKPVTILKIFRCPVEEYLCMNATWSGRLFVRTQDNREIIFGNISFTSTDSSPTTLTGISTLKPWPLSSDLWIHSGTGDIYMFSNASFSDPKCYITLCVLRKNAHIPVQRANFAFGVTDENLVTPTSTRTVDN
# How the values were obtained:
# [1] = biological target: extended Clr-b, C-terminally extended version terminating at Ser207, His-tagged (mouse) (UniProt Q91V08); experiment: AUC; sedimentation velocity, 120 μM each of extended Clr-b and NKR-P1B constructs, alone and in combination; 10 mM Tris-HCl pH 8.0, 0.15 M NaCl, 20 °C
# [2] = biological target: Clr-b residues 74-194, E. coli expressed and refolded (mouse) (UniProt Q91V08); experiment: crystal structure; Clr-b and NKR-P1B^B6 mixed 1:1, 5 mg/ml; 21% PEG 3350, 0.1 M Bis/Tris pH 5.9, 5% glycerol, 0.2 M ammonium sulfate, 20 °C; 2.9 Å
# [3] = biological target: Clr-b residues 74-194, E. coli expressed and refolded (mouse) (UniProt Q91V08); experiment: AUC; sedimentation velocity, Clr-b alone at higher concentrations (25–200 μM); 10 mM Tris-HCl pH 8.0, 0.15 M NaCl, 20 °C; monomer to dimer
# NKp65 (Homo sapiens) = NKp65 (Homo sapiens) (UniProt D3W0D1); conditions: cited from earlier work
# [4] = biological target: the molecule itself; experiment: crystal structure; Clr-b and NKR-P1B^B6 mixed 1:1, 5 mg/ml; 21% PEG 3350, 0.1 M Bis/Tris pH 5.9, 5% glycerol, 0.2 M ammonium sulfate, 20 °C; 2.9 Å
# [5] = biological target: T1, NKR-P1B (B6 allele) C-type lectin-like …; experiment: SPR
# Chain of extended Clr-b, C-terminally extended version terminating at Ser207, His-tagged (mouse) (Q91V08 74-207): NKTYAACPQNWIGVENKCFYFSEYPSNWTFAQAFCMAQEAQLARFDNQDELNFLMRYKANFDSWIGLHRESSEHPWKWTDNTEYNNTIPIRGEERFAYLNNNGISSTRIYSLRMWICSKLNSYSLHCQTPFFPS
# Chain of NKp65 (Homo sapiens) (D3W0D1 whole entry): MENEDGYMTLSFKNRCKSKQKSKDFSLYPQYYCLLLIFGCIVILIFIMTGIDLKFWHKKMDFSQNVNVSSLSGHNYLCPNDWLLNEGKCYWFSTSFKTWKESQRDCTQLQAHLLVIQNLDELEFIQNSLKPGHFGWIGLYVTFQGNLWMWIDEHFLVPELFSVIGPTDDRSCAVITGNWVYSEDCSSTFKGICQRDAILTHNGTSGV
molecule,measurement,setting,value
"extended NKR-P1B (B6 allele) containing the membrane proximal stalk, starting from Gln72, His-tagged (from UniProt Q99JB4 72-223) (domain or fragment)",fraction of total in the species of the complex,[1],6%
same,stoichiometry N (NKR-P1B per Clr-b chain),[1],0.5
"Clr-b residues 74-194, E. coli expressed and refolded (from UniProt Q91V08 74-194) (domain or fragment)",stoichiometry N,[2],2
same,stoichiometry N,[3],2
KACL (from UniProt Q6UVW9),Kd,NKp65 (Homo sapiens),0.0007 µM
B1,stoichiometry N,[4],2
same,stoichiometry N (NKR-P1B per Clr-b chain),[2],0.5
B2,Kd,[5],21.6 µM
